Test results: patent US20250368745A1 (published 2025)
Read-outs that look alike come from different tables or passages of the source.

B1: SA301a HC-G97A (antibody, name in Kabat numbering, V domains shown)
VH: QVQLQESGPGLVKPSQTLSLTCTVSGYSITSDYNSHWIRQPPGKGLEWIGYIHYSGSTNYNPSLKSRVTISRDTSKNQFSLKLSSVTAADTAVYYCARNYASIYVNYFDYWGQGTLVTVSS
VL: EIVLTQSPATLSLSPGERATLSCSASSSVSYMYWYQQKPGQAPRPLIYRTSNLASGIPARFSGSGSGTDFTLTISSLEPEDFAVYYCQQYHSYPTFGGGTKVEIK
notes: IgG1 kappa
B2: SA301a HC-Y100R (antibody, V domains shown)
VH: QVQLQESGPGLVKPSQTLSLTCTVSGYSITSDYNSHWIRQPPGKGLEWIGYIHYSGSTNYNPSLKSRVTISRDTSKNQFSLKLSSVTAADTAVYYCARNYGSIRVNYFDYWGQGTLVTVSS
VL: EIVLTQSPATLSLSPGERATLSCSASSSVSYMYWYQQKPGQAPRPLIYRTSNLASGIPARFSGSGSGTDFTLTISSLEPEDFAVYYCQQYHSYPTFGGGTKVEIK
B3: SA301a HC-Y100Q (antibody, V domains shown)
VH: QVQLQESGPGLVKPSQTLSLTCTVSGYSITSDYNSHWIRQPPGKGLEWIGYIHYSGSTNYNPSLKSRVTISRDTSKNQFSLKLSSVTAADTAVYYCARNYGSIQVNYFDYWGQGTLVTVSS
VL: EIVLTQSPATLSLSPGERATLSCSASSSVSYMYWYQQKPGQAPRPLIYRTSNLASGIPARFSGSGSGTDFTLTISSLEPEDFAVYYCQQYHSYPTFGGGTKVEIK
B4: SA301a HC-Y100A (antibody, V domains shown)
VH: QVQLQESGPGLVKPSQTLSLTCTVSGYSITSDYNSHWIRQPPGKGLEWIGYIHYSGSTNYNPSLKSRVTISRDTSKNQFSLKLSSVTAADTAVYYCARNYGSIAVNYFDYWGQGTLVTVSS
VL: EIVLTQSPATLSLSPGERATLSCSASSSVSYMYWYQQKPGQAPRPLIYRTSNLASGIPARFSGSGSGTDFTLTISSLEPEDFAVYYCQQYHSYPTFGGGTKVEIK
B5: SA301a HC-Y100D (antibody, V domains shown)
VH: QVQLQESGPGLVKPSQTLSLTCTVSGYSITSDYNSHWIRQPPGKGLEWIGYIHYSGSTNYNPSLKSRVTISRDTSKNQFSLKLSSVTAADTAVYYCARNYGSIDVNYFDYWGQGTLVTVSS
VL: EIVLTQSPATLSLSPGERATLSCSASSSVSYMYWYQQKPGQAPRPLIYRTSNLASGIPARFSGSGSGTDFTLTISSLEPEDFAVYYCQQYHSYPTFGGGTKVEIK
B6: SA301a HC-Y100T (antibody, V domains shown)
VH: QVQLQESGPGLVKPSQTLSLTCTVSGYSITSDYNSHWIRQPPGKGLEWIGYIHYSGSTNYNPSLKSRVTISRDTSKNQFSLKLSSVTAADTAVYYCARNYGSITVNYFDYWGQGTLVTVSS
VL: EIVLTQSPATLSLSPGERATLSCSASSSVSYMYWYQQKPGQAPRPLIYRTSNLASGIPARFSGSGSGTDFTLTISSLEPEDFAVYYCQQYHSYPTFGGGTKVEIK
B7: SA301a HC-Y100S (antibody, V domains shown)
VH: QVQLQESGPGLVKPSQTLSLTCTVSGYSITSDYNSHWIRQPPGKGLEWIGYIHYSGSTNYNPSLKSRVTISRDTSKNQFSLKLSSVTAADTAVYYCARNYGSISVNYFDYWGQGTLVTVSS
VL: EIVLTQSPATLSLSPGERATLSCSASSSVSYMYWYQQKPGQAPRPLIYRTSNLASGIPARFSGSGSGTDFTLTISSLEPEDFAVYYCQQYHSYPTFGGGTKVEIK
B8: SA301a HC-Y100I (antibody, V domains shown)
VH: QVQLQESGPGLVKPSQTLSLTCTVSGYSITSDYNSHWIRQPPGKGLEWIGYIHYSGSTNYNPSLKSRVTISRDTSKNQFSLKLSSVTAADTAVYYCARNYGSIIVNYFDYWGQGTLVTVSS
VL: EIVLTQSPATLSLSPGERATLSCSASSSVSYMYWYQQKPGQAPRPLIYRTSNLASGIPARFSGSGSGTDFTLTISSLEPEDFAVYYCQQYHSYPTFGGGTKVEIK
B9: SA301a HC-Y100H (antibody, V domains shown)
VH: QVQLQESGPGLVKPSQTLSLTCTVSGYSITSDYNSHWIRQPPGKGLEWIGYIHYSGSTNYNPSLKSRVTISRDTSKNQFSLKLSSVTAADTAVYYCARNYGSIHVNYFDYWGQGTLVTVSS
VL: EIVLTQSPATLSLSPGERATLSCSASSSVSYMYWYQQKPGQAPRPLIYRTSNLASGIPARFSGSGSGTDFTLTISSLEPEDFAVYYCQQYHSYPTFGGGTKVEIK
B10: SA301a HC-Y100P (antibody, V domains shown)
VH: QVQLQESGPGLVKPSQTLSLTCTVSGYSITSDYNSHWIRQPPGKGLEWIGYIHYSGSTNYNPSLKSRVTISRDTSKNQFSLKLSSVTAADTAVYYCARNYGSIPVNYFDYWGQGTLVTVSS
VL: EIVLTQSPATLSLSPGERATLSCSASSSVSYMYWYQQKPGQAPRPLIYRTSNLASGIPARFSGSGSGTDFTLTISSLEPEDFAVYYCQQYHSYPTFGGGTKVEIK
B11: SA301a HC-Y100L (antibody, V domains shown)
VH: QVQLQESGPGLVKPSQTLSLTCTVSGYSITSDYNSHWIRQPPGKGLEWIGYIHYSGSTNYNPSLKSRVTISRDTSKNQFSLKLSSVTAADTAVYYCARNYGSILVNYFDYWGQGTLVTVSS
VL: EIVLTQSPATLSLSPGERATLSCSASSSVSYMYWYQQKPGQAPRPLIYRTSNLASGIPARFSGSGSGTDFTLTISSLEPEDFAVYYCQQYHSYPTFGGGTKVEIK
B12: SA301a HC-Y100V (antibody, V domains shown)
VH: QVQLQESGPGLVKPSQTLSLTCTVSGYSITSDYNSHWIRQPPGKGLEWIGYIHYSGSTNYNPSLKSRVTISRDTSKNQFSLKLSSVTAADTAVYYCARNYGSIVVNYFDYWGQGTLVTVSS
VL: EIVLTQSPATLSLSPGERATLSCSASSSVSYMYWYQQKPGQAPRPLIYRTSNLASGIPARFSGSGSGTDFTLTISSLEPEDFAVYYCQQYHSYPTFGGGTKVEIK
B13: SA301a HC-Y100N (antibody, V domains shown)
VH: QVQLQESGPGLVKPSQTLSLTCTVSGYSITSDYNSHWIRQPPGKGLEWIGYIHYSGSTNYNPSLKSRVTISRDTSKNQFSLKLSSVTAADTAVYYCARNYGSINVNYFDYWGQGTLVTVSS
VL: EIVLTQSPATLSLSPGERATLSCSASSSVSYMYWYQQKPGQAPRPLIYRTSNLASGIPARFSGSGSGTDFTLTISSLEPEDFAVYYCQQYHSYPTFGGGTKVEIK
B14: SA301a HC-Y100G (antibody, V domains shown)
VH: QVQLQESGPGLVKPSQTLSLTCTVSGYSITSDYNSHWIRQPPGKGLEWIGYIHYSGSTNYNPSLKSRVTISRDTSKNQFSLKLSSVTAADTAVYYCARNYGSIGVNYFDYWGQGTLVTVSS
VL: EIVLTQSPATLSLSPGERATLSCSASSSVSYMYWYQQKPGQAPRPLIYRTSNLASGIPARFSGSGSGTDFTLTISSLEPEDFAVYYCQQYHSYPTFGGGTKVEIK
B15: SA301a HC-Y100E (antibody, V domains shown)
VH: QVQLQESGPGLVKPSQTLSLTCTVSGYSITSDYNSHWIRQPPGKGLEWIGYIHYSGSTNYNPSLKSRVTISRDTSKNQFSLKLSSVTAADTAVYYCARNYGSIEVNYFDYWGQGTLVTVSS
VL: EIVLTQSPATLSLSPGERATLSCSASSSVSYMYWYQQKPGQAPRPLIYRTSNLASGIPARFSGSGSGTDFTLTISSLEPEDFAVYYCQQYHSYPTFGGGTKVEIK
B16: SA301a HC-Y100F (antibody, V domains shown)
VH: QVQLQESGPGLVKPSQTLSLTCTVSGYSITSDYNSHWIRQPPGKGLEWIGYIHYSGSTNYNPSLKSRVTISRDTSKNQFSLKLSSVTAADTAVYYCARNYGSIFVNYFDYWGQGTLVTVSS
VL: EIVLTQSPATLSLSPGERATLSCSASSSVSYMYWYQQKPGQAPRPLIYRTSNLASGIPARFSGSGSGTDFTLTISSLEPEDFAVYYCQQYHSYPTFGGGTKVEIK
B17: SA301a HC-Y100K (antibody, V domains shown)
VH: QVQLQESGPGLVKPSQTLSLTCTVSGYSITSDYNSHWIRQPPGKGLEWIGYIHYSGSTNYNPSLKSRVTISRDTSKNQFSLKLSSVTAADTAVYYCARNYGSIKVNYFDYWGQGTLVTVSS
VL: EIVLTQSPATLSLSPGERATLSCSASSSVSYMYWYQQKPGQAPRPLIYRTSNLASGIPARFSGSGSGTDFTLTISSLEPEDFAVYYCQQYHSYPTFGGGTKVEIK
B18: SA301a HC-Y100M (antibody, V domains shown)
VH: QVQLQESGPGLVKPSQTLSLTCTVSGYSITSDYNSHWIRQPPGKGLEWIGYIHYSGSTNYNPSLKSRVTISRDTSKNQFSLKLSSVTAADTAVYYCARNYGSIMVNYFDYWGQGTLVTVSS
VL: EIVLTQSPATLSLSPGERATLSCSASSSVSYMYWYQQKPGQAPRPLIYRTSNLASGIPARFSGSGSGTDFTLTISSLEPEDFAVYYCQQYHSYPTFGGGTKVEIK
B19: SA301a HC-V100aR (antibody, name in Kabat numbering, V domains shown)
VH: QVQLQESGPGLVKPSQTLSLTCTVSGYSITSDYNSHWIRQPPGKGLEWIGYIHYSGSTNYNPSLKSRVTISRDTSKNQFSLKLSSVTAADTAVYYCARNYGSIYRNYFDYWGQGTLVTVSS
VL: EIVLTQSPATLSLSPGERATLSCSASSSVSYMYWYQQKPGQAPRPLIYRTSNLASGIPARFSGSGSGTDFTLTISSLEPEDFAVYYCQQYHSYPTFGGGTKVEIK
notes: IgG1 kappa
B20: SA301a HC-V100aY (antibody, name in Kabat numbering, V domains shown)
VH: QVQLQESGPGLVKPSQTLSLTCTVSGYSITSDYNSHWIRQPPGKGLEWIGYIHYSGSTNYNPSLKSRVTISRDTSKNQFSLKLSSVTAADTAVYYCARNYGSIYYNYFDYWGQGTLVTVSS
VL: EIVLTQSPATLSLSPGERATLSCSASSSVSYMYWYQQKPGQAPRPLIYRTSNLASGIPARFSGSGSGTDFTLTISSLEPEDFAVYYCQQYHSYPTFGGGTKVEIK
notes: IgG1 kappa

How the values were obtained:
Experiment in all cases: BLI, apparent KD
human IL-18BP [1] = molecular target: T1, human IL-18BP (human, UniProt O95998 31-194)
T1 construct: UniProt printed as 095998; also called hIL-18BP
T1 sequence: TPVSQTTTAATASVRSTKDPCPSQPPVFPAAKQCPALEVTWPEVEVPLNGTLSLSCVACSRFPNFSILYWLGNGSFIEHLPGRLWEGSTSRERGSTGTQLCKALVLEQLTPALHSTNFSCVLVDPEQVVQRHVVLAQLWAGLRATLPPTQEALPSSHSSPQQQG

cynomolgus IL-18BP = molecular target: T2, cynomolgus IL-18BP (cynomolgus monkey)
T2 construct: also called cyno IL-18BP; cyIL-18BP
T2 chain: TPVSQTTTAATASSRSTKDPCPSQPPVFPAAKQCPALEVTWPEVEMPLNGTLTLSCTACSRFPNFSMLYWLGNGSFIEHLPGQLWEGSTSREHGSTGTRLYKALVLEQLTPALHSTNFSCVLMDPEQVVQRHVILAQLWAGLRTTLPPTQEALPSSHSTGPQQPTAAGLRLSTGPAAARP

human IL-18BP [2] = molecular target: T1, human IL-18BP; remark: listed apart in the source

| Binder | Kd (human IL-18BP [1]) [nM] | Kd (cynomolgus IL-18BP) [nM] | Kd (human IL-18BP [2]) [nM] |
| --- | --- | --- | --- |
| B1 | 0.44 | – | – |
| B2 | – | 2.06 | 1.32 |
| B3 | – | 3.58 | 1.88 |
| B4 | – | 4.17 | 0.88 |
| B5 | – | 3.65 | 0.56 |
| B6 | – | 4.48 | 1.08 |
| B7 | – | 3.27 | 0.72 |
| B8 | – | 1.02 | 0.94 |
| B9 | – | 1.1 | 1.3 |
| B10 | – | 2.4 | 0.63 |
| B11 | – | 1.41 | 1.06 |
| B12 | – | 2.55 | 1.59 |
| B13 | – | 3.59 | 0.9 |
| B14 | – | 0.48 | 0.51 |
| B15 | – | 1.64 | 0.61 |
| B16 | – | 0.26 | 0.1 |
| B17 | – | 2.18 | 1.49 |
| B18 | – | 2.28 | 2.07 |
| B19 | – | 0.08 | 0.19 |
| B20 | – | 0.58 | 27.7 |
